Experimental data: article PMC4791394

These substances were tested against taxol-stabilized microtubules (assay: co-sedimentation; normalized COS7 lysates in PEM buffer incubated with taxol-stabilized microtubules with 2.5 mM AMP-PNP, RT 30 min; 100,000 x g 40 min through a taxol-supplemented cushion; supernatant and pellet blotted for KIF5 and tubulin).

percent co-purified with microtubules	Substance
100%	KIF5C(1-560)^S176A-3xmCit (from UniProt P28738 1-560) (domain or fragment)
60%	KIF5C(1-560)^S176D-3xmCit (from UniProt P28738 1-560) (domain or fragment)
100%	KIF5C(1-560)^WT-3xmCit (from UniProt P28738 1-560) (domain or fragment)
